Assay [1] deals with Tr3DCatch1 (chimeric SpyAvidin tetramer of three core traptavidin subunits and one Dead streptavidin-SpyCatcher subunit) (UniProt P22629). The experiment in a line: gel shift on SDS-PAGE of unboiled samples, Coomassie staining; SpyAvidin tetramer incubated with the ligand for 1 h at room temperature in PBS; the SpyTag/SpyCatcher link is a covalent isopeptide bond.
The target of assay [2] is Tr (core traptavidin), homotetramer Tr4. In words: mixed refolding, ion-exchange chromatography and SDS-PAGE with or without boiling; subunits refolded from dissolved inclusion bodies (alone or mixed) by dilution into PBS; tetramers separated on Q-HP with a NaCl gradient in 20 mM Tris-HCl pH 8.0; tetramers stay assembled on SDS-PAGE unless boiled.
The target of assay [3] is Tre (core traptavidin with a C-terminal hexaglutamate tag), homotetramer Tre4. Described as above.

Here are results for three substances from PMC4183622.

“KTag-AffiHER2-SpyTag (SpyTag-linked affibody against HER2)”: the stoichiometry N in assay [1] amounted to 1.

Substance “Tr (core traptavidin), homotetramer Tr4 (complex)” registered a stoichiometry N in assay [2] of 4.

The substance “Tre (core traptavidin with a C-terminal hexaglutamate tag), homotetramer Tre4 (complex)” registered a stoichiometry N in assay [3] of 4.

As usually defined, the stoichiometry N is a count of units in the complex or per binding partner.
